Laboratory results reported in patent USRE48267E1, “Variants of C-type natriuretic peptide” (priority 2009, dated 2020).
Where no end group is shown, it is not given here. [ ]: non-standard residue; d: D form. PEO12 = PEO12, 0.6 kDa, monodispersed; PEO24 = PEO24, 1.2 kDa, monodispersed; tBuAla = CC(C)(C)C[C@H](N)C(=O)O; Cit = NC(=O)NCCC[C@H](N)C(=O)O

T1: NPR-B (natriuretic peptide receptor B), murine, expressed endogenously on NIH3T3 cells (murine, UniProt Q6VVW5 17-1047)
T1 sequence (looked up): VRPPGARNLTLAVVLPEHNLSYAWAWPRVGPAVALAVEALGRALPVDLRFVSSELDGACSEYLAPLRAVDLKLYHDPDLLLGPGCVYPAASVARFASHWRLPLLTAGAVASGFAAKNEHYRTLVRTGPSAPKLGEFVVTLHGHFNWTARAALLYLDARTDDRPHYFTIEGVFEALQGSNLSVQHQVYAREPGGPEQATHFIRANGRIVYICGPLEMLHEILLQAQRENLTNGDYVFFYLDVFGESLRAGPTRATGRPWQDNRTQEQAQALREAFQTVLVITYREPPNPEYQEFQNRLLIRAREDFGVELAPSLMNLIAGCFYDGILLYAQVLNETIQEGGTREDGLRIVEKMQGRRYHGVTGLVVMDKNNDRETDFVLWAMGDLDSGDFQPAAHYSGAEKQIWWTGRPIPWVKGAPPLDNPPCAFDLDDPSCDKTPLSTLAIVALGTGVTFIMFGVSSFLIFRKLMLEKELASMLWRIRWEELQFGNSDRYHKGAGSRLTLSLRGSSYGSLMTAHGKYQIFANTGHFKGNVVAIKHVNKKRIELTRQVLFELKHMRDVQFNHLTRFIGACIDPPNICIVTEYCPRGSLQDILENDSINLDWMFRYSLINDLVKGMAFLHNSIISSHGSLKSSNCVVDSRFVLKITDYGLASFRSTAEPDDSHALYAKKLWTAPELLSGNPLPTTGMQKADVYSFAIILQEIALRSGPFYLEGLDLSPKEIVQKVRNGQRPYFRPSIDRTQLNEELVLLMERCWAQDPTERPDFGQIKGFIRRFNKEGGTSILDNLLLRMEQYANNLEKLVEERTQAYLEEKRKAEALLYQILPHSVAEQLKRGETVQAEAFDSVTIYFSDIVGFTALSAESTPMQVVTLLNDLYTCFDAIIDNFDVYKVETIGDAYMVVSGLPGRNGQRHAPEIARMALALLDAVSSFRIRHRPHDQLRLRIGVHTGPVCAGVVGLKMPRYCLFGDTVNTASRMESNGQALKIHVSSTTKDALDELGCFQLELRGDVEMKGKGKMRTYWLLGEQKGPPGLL


molecular target: T1, NPR-B (natriuretic peptide receptor B), …; test: cell-based or functional assay

Binder | cGMP response rel. to 1 uM CNP22; 10 nM peptide, NIH3T3 cells | cGMP response rel. to 1 uM CNP22; 1 uM peptide, NIH3T3 cells
GLSRGCFGLKLDRIGSMSGLGC [CNP22, K4R] | 59 rel. to 1 uM CNP22 (100) | 121 rel. to 1 uM CNP22 (100)
GLSRGCFGLKLDRINSMSGLGC [CNP22, K4R, G15N] | 4 rel. to 1 uM CNP22 (100) | 41 rel. to 1 uM CNP22 (100)
GLSRGCFTLKLDRIGSMSGLGC [CNP22, K4R, G8T] | 11 rel. to 1 uM CNP22 (100) | 66 rel. to 1 uM CNP22 (100)
GLSRGCFGLKLDRIGSMSG[tBuAla]GC (ends and bridges not checked) [CNP22, K4R, L20t-butyl-Ala] | 1 rel. to 1 uM CNP22 (100) | 21 rel. to 1 uM CNP22 (100)
GLSRGCFGLKLDRIGSMSRLGC [CNP22, K4R, G19R] | 22 rel. to 1 uM CNP22 (100) | 84 rel. to 1 uM CNP22 (100)
GLSRGCFGLKLDRIRSMSGLGC [CNP22, K4R, G15R] | 0.3 rel. to 1 uM CNP22 (100) | 0.3 rel. to 1 uM CNP22 (100)
GLSRGCFGLKLDRIGSNSGLGC [CNP22, K4R, M17N] | 40 rel. to 1 uM CNP22 (100) | 103 rel. to 1 uM CNP22 (100)
GLSRGCFGL[Cit]LDRIGSMSGLGC (ends and bridges not checked) [CNP22, K4R, K10Cit] | 6 rel. to 1 uM CNP22 (100) | 33 rel. to 1 uM CNP22 (100)
GLSRRCFGLKLDRIGSMSGLGC [CNP22, K4R, G5R] | 18 rel. to 1 uM CNP22 (100) | 80 rel. to 1 uM CNP22 (100)
GLSRGCFVLKLDRIGSMSGLGC [CNP22, K4R, G8V] | 3 rel. to 1 uM CNP22 (100) | 25 rel. to 1 uM CNP22 (100)
GLSRGCFSLKLDRIGSMSGLGC [CNP22, K4R, G8S] | 26 rel. to 1 uM CNP22 (100) | 86 rel. to 1 uM CNP22 (100)
GLSRSCFGLKLDRIGSMSGLGC [CNP22, K4R, G5S] | 45 rel. to 1 uM CNP22 (100) | –
GLSRGCFGLKLDRIGSMSGLRC [CNP22, K4R, G21R] | 20 rel. to 1 uM CNP22 (100) | 21 rel. to 1 uM CNP22 (100)
GLSRGCFGLKLDRIGSMSGRGC [CNP22, K4R, L20R] | 11 rel. to 1 uM CNP22 (100) | 8 rel. to 1 uM CNP22 (100)
GLSRGCFGLKLDRIGSMSGLTC [CNP22, K4R, G21T] | 6 rel. to 1 uM CNP22 (100) | 21 rel. to 1 uM CNP22 (100)
GLSRGCYGLKLDRIGSMSGLGC (ends and bridges not checked; cysteine pairing not given here) [CNP22, K4R, F7Y] | 2 rel. to 1 uM CNP22 (100) | 18 rel. to 1 uM CNP22 (100)
GLSRGCFGLSLDRIGSMSGLGC [CNP22, K4R, K10S] | 16 rel. to 1 uM CNP22 (100) | 53 rel. to 1 uM CNP22 (100)
GLSRGCFGLKLDRIGSVSGLGC [CNP22, K4R, M17V] | 10 rel. to 1 uM CNP22 (100) | 65 rel. to 1 uM CNP22 (100)
ELSEGCFGLKLDRIGSMSGLGC [CNP22, G1E, K4E] | 11 rel. to 1 uM CNP22 (100) | 54 rel. to 1 uM CNP22 (100)
GLSRGCFGLQLDRIGSMSGLGC [CNP22, K4R, K10Q] | 9 rel. to 1 uM CNP22 (100) | 45 rel. to 1 uM CNP22 (100)
GLSRGCFGLKLDRIGSMSSLGC [CNP22, K4R, G19S] | 21 rel. to 1 uM CNP22 (100) | 63 rel. to 1 uM CNP22 (100)
GLSRGCFGLKLDRISSMSGLGC [CNP22, K4R, G15S] | 13 rel. to 1 uM CNP22 (100) | 71 rel. to 1 uM CNP22 (100)
GLSRGCFGLKLDRI[Cit]SMSGLGC (ends and bridges not checked) [CNP22, K4R, G15Cit] | 1.4 rel. to 1 uM CNP22 (100) | 2 rel. to 1 uM CNP22 (100)
GLSRGCFGTKLDRIGSMSGLGC [CNP22, K4R, L9T] | 4 rel. to 1 uM CNP22 (100) | 68 rel. to 1 uM CNP22 (100)
GLSRGCFGLRLDRIGSMSGLGC [CNP22, K4R, K10R] | 12 rel. to 1 uM CNP22 (100) | 80 rel. to 1 uM CNP22 (100)
GLSRGCFGLKLDRIGSMSGVGC [CNP22, K4R, L20V] | 0.2 rel. to 1 uM CNP22 (100) | 8 rel. to 1 uM CNP22 (100)
GLSRGCFGLKLDRIGQMSGLGC [CNP22, K4R, S16Q] | 42 rel. to 1 uM CNP22 (100) | 116 rel. to 1 uM CNP22 (100)

molecular target: T1, NPR-B (natriuretic peptide receptor B), …; test: cell-based or functional assay; remark: another data set of the same source

Binder | cGMP response rel. to 1 uM CNP22; 10 nM peptide, NIH3T3 cells | cGMP response rel. to 1 uM CNP22; 1 uM peptide, NIH3T3 cells
{PEG 2 kDa}-GLSKGCFGLKLDRIGSMSGLGC (ends and bridges not checked) [PEG2K-CNP22] | 6 rel. to 1 uM CNP22 (100) | 32 rel. to 1 uM CNP22 (100)
{PEG 5 kDa}-GLSKGCFGLKLDRIGSMSGLGC (ends and bridges not checked; also: PEG polydispersed) [PEG5K-CNP22] | 8 rel. to 1 uM CNP22 (100) | 20 rel. to 1 uM CNP22 (100)
{PEO4‑(PEO12)3 (branched)}-GLSKGCFGLKLDRIGSMSGLGC (ends and bridges not checked) [PEO4-(PEO12)3 (branched)-CNP22] | 17 rel. to 1 uM CNP22 (100) | 52 rel. to 1 uM CNP22 (100)
{PEG 20 kDa}-GLSKGCFGLKLDRIGSMSGLGC (ends and bridges not checked) [PEG20K-CNP22] | 0 rel. to 1 uM CNP22 (100) | 15 rel. to 1 uM CNP22 (100)
GLSKGCFGLKLDRIGSMSGLGC (not fully specified (N-terminus); ends and bridges not checked) [(PEO12)-Biotin-CNP22] | 19 rel. to 1 uM CNP22 (100) | 81 rel. to 1 uM CNP22 (100)
PEO12-GLSKGCFGLKLDRIGSMSGLGC (ends and bridges not checked) [PEO12-CNP22] | 12 rel. to 1 uM CNP22 (100) | 57 rel. to 1 uM CNP22 (100)
{PEG 1 kDa}-GLSKGCFGLKLDRIGSMSGLGC (ends and bridges not checked; also: PEG polydispersed) [PEG1K-CNP22] | 15 rel. to 1 uM CNP22 (100) | 68 rel. to 1 uM CNP22 (100)
PEO24-GLSKGCFGLKLDRIGSMSGLGC (ends and bridges not checked) [PEO24-CNP22] | 8 rel. to 1 uM CNP22 (100) | 46 rel. to 1 uM CNP22 (100)
